Experimental data taken from the supplement of paper PMC9112550, “Optimization of the antimicrobial peptide Bac7 by deep mutational scanning” (BMC Biology, 2022).

What follows are sequences tested on Escherichia coli TOP10 (assay: shrunken log2 fold change of peptide-encoding DNA abundance (4.5 h post-induction vs induction); higher = less antimicrobial activity (less host growth inhibition)). Details: time post-induction: 4.5 h; library: site-saturation at positions 5, 18, 19, 20.
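Further: peptides expressed intracellularly from a pBAD plasmid library in pooled LB shake-flask culture, induced with 0.3% L-arabinose, DNA abundance read by NGS, three biological replicates, DESeq2 with apeglm shrinkage.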

Sequence	shrunken log2 fold change
RRIRCRPPRLPRPRPRPDFWPRP	0.0753
RRIRVRPPRLPRPRPRPAFWPRP	2.56
RRIRHRPPRLPRPRPRPESFPRP	-0.0018
RRIRHRPPRLPRPRPRPSWWPRP	0.348
RRIRSRPPRLPRPRPRPEYNPRP	-0.229
RRIRERPPRLPRPRPRPMDAPRP	-0.0623
RRIRARPPRLPRPRPRPACYPRP	0.489
RRIRTRPPRLPRPRPRPFQTPRP	0.0582
RRIRTRPPRLPRPRPRPEVMPRP	0.114
RRIRCRPPRLPRPRPRPRDRPRP	0.731
RRIRERPPRLPRPRPRPTGIPRP	0.0836
RRIRKRPPRLPRPRPRPDVEPRP	0.962
RRIRGRPPRLPRPRPRPSWEPRP	0.0693
RRIRDRPPRLPRPRPRPRTPPRP	0.17
RRIRMRPPRLPRPRPRPCQMPRP	0.00911
RRIRFRPPRLPRPRPRPLGKPRP	-0.17
RRIRGRPPRLPRPRPRPEMFPRP	0.0463
RRIRKRPPRLPRPRPRPFTLPRP	0.0269
RRIRNRPPRLPRPRPRPHIEPRP	-0.195
RRIRIRPPRLPRPRPRPDRCPRP	-0.163
RRIRERPPRLPRPRPRPYCEPRP	-0.0402
RRIRCRPPRLPRPRPRPCFKPRP	-0.603

Sequence	shrunken log2 fold change
RRIRTRPPRLPRPRPRPIYHPRP	-0.191
RRIRNRPPRLPRPRPRPVKIPRP	0.0539
RRIRWRPPRLPRPRPRPKACPRP	0.105
RRIRDRPPRLPRPRPRPYEGPRP	0.00106
RRIRIRPPRLPRPRPRPIYEPRP	-0.107
RRIRTRPPRLPRPRPRPDCGPRP	0.759
RRIRERPPRLPRPRPRPLLRPRP	-0.152
RRIRGRPPRLPRPRPRPCAWPRP	0.167
RRIRARPPRLPRPRPRPGQWPRP	0.466
RRIRERPPRLPRPRPRPFESPRP	0.00731
RRIRMRPPRLPRPRPRPNLHPRP	-0.0942
RRIRGRPPRLPRPRPRPGFQPRP	0.157
RRIRVRPPRLPRPRPRPKDRPRP	-0.0469
RRIRGRPPRLPRPRPRPYSYPRP	-0.0264
RRIRIRPPRLPRPRPRPPDNPRP	-0.368
RRIRLRPPRLPRPRPRPSGCPRP	0.345
RRIRNRPPRLPRPRPRPLPCPRP	-0.207
RRIRDRPPRLPRPRPRPPGKPRP	0.176
RRIRHRPPRLPRPRPRPFFWPRP	0.093
RRIRCRPPRLPRPRPRPMTGPRP	-0.103
RRIRKRPPRLPRPRPRPFLQPRP	-0.0765
RRIRDRPPRLPRPRPRPEYAPRP	0.815

Sequence	shrunken log2 fold change
RRIRTRPPRLPRPRPRPVIAPRP	-0.189
RRIRSRPPRLPRPRPRPENWPRP	-0.0386
RRIRHRPPRLPRPRPRPANCPRP	-0.246
RRIRRRPPRLPRPRPRPMQSPRP	0.0774
RRIRARPPRLPRPRPRPKHEPRP	0.529
RRIRVRPPRLPRPRPRPAGMPRP	-0.0507
RRIRSRPPRLPRPRPRPDPWPRP	0.0152
RRIRLRPPRLPRPRPRPRGLPRP	0.146
RRIRMRPPRLPRPRPRPDWLPRP	-0.0671
RRIRQRPPRLPRPRPRPVDCPRP	-0.013
RRIRKRPPRLPRPRPRPRMGPRP	0.149
RRIRMRPPRLPRPRPRPTTMPRP	0.558
RRIRARPPRLPRPRPRPQFTPRP	0.0535
RRIRRRPPRLPRPRPRPCQSPRP	0.0448
RRIRRRPPRLPRPRPRPVQEPRP	-0.00475
RRIRCRPPRLPRPRPRPDFHPRP	-0.685
RRIRHRPPRLPRPRPRPEFDPRP	0.12
RRIRNRPPRLPRPRPRPQSNPRP	-0.428
RRIRPRPPRLPRPRPRPGESPRP	-0.0364
RRIRERPPRLPRPRPRPDSSPRP	-0.509
RRIRLRPPRLPRPRPRPFNSPRP	-0.431
RRIRWRPPRLPRPRPRPQCMPRP	-0.157

Sequence	shrunken log2 fold change
RRIRKRPPRLPRPRPRPQKQPRP	-0.0697
RRIRSRPPRLPRPRPRPYFNPRP	-0.626
RRIRPRPPRLPRPRPRPEVYPRP	0.0493
RRIRKRPPRLPRPRPRPSHHPRP	0.02
RRIRMRPPRLPRPRPRPMCSPRP	-0.00161
RRIRGRPPRLPRPRPRPSEEPRP	0.503
RRIRTRPPRLPRPRPRPLRSPRP	0.387
RRIRNRPPRLPRPRPRPSGIPRP	-0.983
RRIRFRPPRLPRPRPRPGYYPRP	-0.195
RRIRMRPPRLPRPRPRPIVIPRP	-0.0284
RRIRTRPPRLPRPRPRPYQEPRP	-0.182
RRIRSRPPRLPRPRPRPLQMPRP	0.24
RRIRYRPPRLPRPRPRPKRVPRP	0.0354
RRIRYRPPRLPRPRPRPQYPPRP	-0.733
RRIRWRPPRLPRPRPRPQCAPRP	0.572
RRIRYRPPRLPRPRPRPHHLPRP	-0.329
RRIRRRPPRLPRPRPRPTTIPRP	-0.12
RRIRTRPPRLPRPRPRPVQWPRP	0.116
RRIRRRPPRLPRPRPRPGIQPRP	0.0906
RRIRGRPPRLPRPRPRPVFMPRP	0.0348
RRIRSRPPRLPRPRPRPERYPRP	-0.037
RRIRLRPPRLPRPRPRPWWWPRP	-0.00192

Sequence	shrunken log2 fold change
RRIRHRPPRLPRPRPRPIWWPRP	0.0995
RRIRPRPPRLPRPRPRPVELPRP	-0.0271
RRIRRRPPRLPRPRPRPMRVPRP	0.93
RRIRPRPPRLPRPRPRPEWMPRP	0.0362
RRIRRRPPRLPRPRPRPRHNPRP	-0.14
RRIRERPPRLPRPRPRPDGMPRP	-0.0237
RRIRARPPRLPRPRPRPPDDPRP	1.2
RRIRARPPRLPRPRPRPKPKPRP	0.936
RRIRGRPPRLPRPRPRPMASPRP	0.176
RRIRQRPPRLPRPRPRPSDMPRP	0.0447
RRIRCRPPRLPRPRPRPRFLPRP	-0.232
RRIRNRPPRLPRPRPRPEFRPRP	-0.107
RRIRDRPPRLPRPRPRPIISPRP	0.0102
RRIRLRPPRLPRPRPRPVNTPRP	-0.186
RRIRDRPPRLPRPRPRPHMNPRP	0.001
RRIRDRPPRLPRPRPRPAPYPRP	-0.352
RRIRGRPPRLPRPRPRPVYTPRP	0.00198
RRIRYRPPRLPRPRPRPKRKPRP	-0.128
RRIRWRPPRLPRPRPRPKVCPRP	-0.0693
RRIRCRPPRLPRPRPRPCWAPRP	-0.0725
RRIRYRPPRLPRPRPRPWRNPRP	-0.00674
